The assay addresses EndoS2_(E186L), catalytically inactive EndoS2 (Streptococcus pyogenes (serotype M49)) (UniProt T1WGN1). Put plainly: NMR titration; methyl-TROSY (1H,13C HMQC) spectra of MILV methyl-labelled enzyme (45-128 µM) titrated with ligand; 2D lineshape fitting with TITAN, two-state binding model; 20 mM Tris-d11 pH* 7.50, 50 mM NaCl in D2O; 600 MHz, 298 K.

In the case of “Fc region of the IgG1 monoclonal antibody Rituximab (Fc-Rituximab) (from UniProt P01857 1-328) (domain or fragment)”, the equilibrium dissociation constant (Kd) (in general, the concentration at which binding is half-saturated) turned out to be 3.1 µM; the koff (in general, the rate constant with which the complex falls apart) was 4 s⁻¹; the on-rate constant (kon) (in general, the rate constant with which the complex forms) amounted to 1.3e+06 M⁻¹ s⁻¹.

The values above are taken from article PMC10042849.
